Measurements as given in patent publication US20250154265A1 (BEIGENE, published 2025).

What was measured:
Assay in all cases: cell-based or functional assay
[1] = target: T1, human cMET on cells (Hs746T, H596, EBC-1) (human, UniProt P08581 25-1390)
[2] = target: T1, human cMET on cells (Hs746T, H596, …); remark: listed apart in the source
[3] = target: T1, human cMET on cells (Hs746T, H596, …); remark: listed apart in the source

T1 sequence (P08581 25-1390 limits assumed): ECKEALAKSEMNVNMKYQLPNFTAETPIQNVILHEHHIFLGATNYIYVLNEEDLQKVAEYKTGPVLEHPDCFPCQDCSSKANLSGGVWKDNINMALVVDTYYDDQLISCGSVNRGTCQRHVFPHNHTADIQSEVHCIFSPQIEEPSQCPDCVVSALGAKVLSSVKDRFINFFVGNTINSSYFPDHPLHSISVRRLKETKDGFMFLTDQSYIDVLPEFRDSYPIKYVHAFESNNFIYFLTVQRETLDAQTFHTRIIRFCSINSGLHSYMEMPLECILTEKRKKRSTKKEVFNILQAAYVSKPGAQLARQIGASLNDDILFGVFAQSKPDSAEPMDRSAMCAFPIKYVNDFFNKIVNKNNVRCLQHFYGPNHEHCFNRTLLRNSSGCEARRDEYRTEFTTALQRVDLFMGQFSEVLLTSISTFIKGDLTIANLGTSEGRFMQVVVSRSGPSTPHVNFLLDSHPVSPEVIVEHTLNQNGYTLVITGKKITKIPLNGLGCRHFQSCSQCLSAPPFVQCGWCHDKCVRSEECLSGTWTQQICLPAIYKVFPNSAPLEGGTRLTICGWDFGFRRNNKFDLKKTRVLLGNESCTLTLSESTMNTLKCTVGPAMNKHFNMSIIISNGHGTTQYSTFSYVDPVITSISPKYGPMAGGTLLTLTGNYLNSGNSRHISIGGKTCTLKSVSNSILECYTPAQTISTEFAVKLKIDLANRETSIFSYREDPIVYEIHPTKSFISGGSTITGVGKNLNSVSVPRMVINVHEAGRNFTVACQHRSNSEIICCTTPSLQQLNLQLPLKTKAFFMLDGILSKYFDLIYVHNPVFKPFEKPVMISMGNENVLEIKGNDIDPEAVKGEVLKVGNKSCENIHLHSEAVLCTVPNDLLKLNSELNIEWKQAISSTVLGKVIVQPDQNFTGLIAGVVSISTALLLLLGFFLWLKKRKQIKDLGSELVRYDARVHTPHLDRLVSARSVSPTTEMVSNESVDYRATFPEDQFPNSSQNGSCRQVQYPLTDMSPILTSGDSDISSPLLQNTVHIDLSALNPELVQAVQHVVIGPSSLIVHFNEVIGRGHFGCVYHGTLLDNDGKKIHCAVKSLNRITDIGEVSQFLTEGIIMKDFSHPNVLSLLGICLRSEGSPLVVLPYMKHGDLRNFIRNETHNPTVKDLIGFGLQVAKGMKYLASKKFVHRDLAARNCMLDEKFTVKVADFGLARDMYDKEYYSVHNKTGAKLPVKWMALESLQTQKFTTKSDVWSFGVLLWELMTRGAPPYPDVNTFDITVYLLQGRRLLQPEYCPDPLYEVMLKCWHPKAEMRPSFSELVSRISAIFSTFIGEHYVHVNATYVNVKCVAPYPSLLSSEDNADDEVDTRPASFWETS

B1: 063Ab07710 (antibody, human IgG1, kappa, V domains shown)
VH: QVQLVESGGGVVQPGRSLRLSCAASGFTFSSYGMHWVRQAPGKGLEWVAVISNDGSYKYYVDSVTGRFTISRDNSKNTLYLQMNSLRAEDTAVYYCAKDRNMGYSGWFDYWGQGSLVTVSS
VL: not shown
IC50, inhibition of HGF-induced ERK phospho-T202/Y204 in H596 cells [1]: > 250 nM

B2: 06BS02 (bispecific antibody, V domains shown)
VH 1: QVQLVESGGGVVQPGRSLRLSCAASGFTFSSHGMHWVRQAPGKGLEWVAVISYDESDKYYADSVKGRFTISRDHSKNTLYLQMNSLRAEDTAVYYCVKDRNMGYSGWLDYWGQGTLVTVSS
VH 2: QFQLQESGPGLVKPSETLSLTCTVSGGSISTSSYYWGWIRQPPGKGLEWIGTIYFSGTTYYNPSLTSRVSMSVDTSKNQFSLKLNSVTAADTSIYYCARHWPKYNSWFDPWGQGFLVTVSS
VL: not shown
Imax %, inhibition of HGF-induced ERK phospho-T202/Y204 in H596 cells [2]: 90%

B3: 06BS03 (bispecific antibody, V domains shown)
VH 1: QVQLVESGGGVVQPGKSLRLSCAASGFTFSSSGLHWVRQAPGKGLEWVAVISYDTSNKYYADSVKGRFTISRDNSKNTLYLQMNSLRAEDTAVYYCAKDLNRGYDWGFDYWGQGTLVTVSS
VH 2: QFQLQESGPGLVKPSETLSLTCTVSGGSISTSSYYWGWIRQPPGKGLEWIGTIYYSGTTYYNPSLKSRVTISVDTSKNQFSLKLKSVTAADTSIYYCARHWPKYNSWFDPWGQGILVTVSS
VL: not shown
IC50, inhibition of ERK phospho-T202/Y204 in Hs746T cells [3]: 0.5 nM
